Measurements published in paper PMC5825201 (mAbs, 2018).

Target: endogenous human tissue factor on MDA-MB-231 breast cancer cells (Homo sapiens (MDA-MB-231 cells), UniProt P13726)
Assay: flow cytometry on cells

endogenous human tissue factor on MDA-MB-231 breast cancer cells, sequence (P13726 33-295): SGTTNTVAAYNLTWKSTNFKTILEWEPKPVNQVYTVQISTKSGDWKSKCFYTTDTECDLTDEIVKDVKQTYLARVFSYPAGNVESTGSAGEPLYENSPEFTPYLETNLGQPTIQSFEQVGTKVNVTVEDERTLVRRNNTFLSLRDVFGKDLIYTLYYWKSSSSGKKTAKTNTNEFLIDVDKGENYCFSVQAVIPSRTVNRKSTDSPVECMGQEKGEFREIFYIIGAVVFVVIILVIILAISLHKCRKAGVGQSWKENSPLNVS

B1: chimeric mouse/human version of 10H10 mAb (antibody, V domains shown)
VH: QVHLQQSGAELMKPGASVKISCKASGYTFITYWIEWVKQRPGHGLEWIGDILPGSGSTNYNENFKGKATFTADSSSNTAYMQLSSLTSEDSAVYYCARSGYYGNSGFAYWGQGTLVTVSA
VL: DIVMTQSPSSLTVTAGEKVTMSCKSSQSLLSSGNQKNYLTWYQQIPGQPPKLLIYWASTRESGVPDRFTGSGSGTDFTLTINSVQAEDLAVYYCQNDYTYPLTFGAGTKLELK
  cell binding (% to 10H10): 100%
